Results: US20040146931

System: Gal11P-P53zf zinc finger (artificial)
Assay: cell_activity
Conditions: EGFP over control, in vivo site selection

Sequence	binding [fold]	binding (matches the consensus) [fold]
CGGGACACGGG (double strand) [in vivo selected P53zf site 3]	> 2	
CGGGACACGTG (double strand) [in vivo selected P53zf site 1]		> 2
CGGGACATGTG (double strand) [in vivo selected P53zf site 2]	> 2	
